The source of these data is patent publication US20150376265A1 (Genentech, published 2015).

Test in all cases: cell-based or functional assay
Assay [1] addresses T1, Complex I with gH P171H, on virions of HB1 - mutant virus 1 (HCMV, UniProt P12824 24-743; P16832 31-278; P16837 28-171; F5HCP3 26-214; F5HET4 19-129).
T1 chain 1: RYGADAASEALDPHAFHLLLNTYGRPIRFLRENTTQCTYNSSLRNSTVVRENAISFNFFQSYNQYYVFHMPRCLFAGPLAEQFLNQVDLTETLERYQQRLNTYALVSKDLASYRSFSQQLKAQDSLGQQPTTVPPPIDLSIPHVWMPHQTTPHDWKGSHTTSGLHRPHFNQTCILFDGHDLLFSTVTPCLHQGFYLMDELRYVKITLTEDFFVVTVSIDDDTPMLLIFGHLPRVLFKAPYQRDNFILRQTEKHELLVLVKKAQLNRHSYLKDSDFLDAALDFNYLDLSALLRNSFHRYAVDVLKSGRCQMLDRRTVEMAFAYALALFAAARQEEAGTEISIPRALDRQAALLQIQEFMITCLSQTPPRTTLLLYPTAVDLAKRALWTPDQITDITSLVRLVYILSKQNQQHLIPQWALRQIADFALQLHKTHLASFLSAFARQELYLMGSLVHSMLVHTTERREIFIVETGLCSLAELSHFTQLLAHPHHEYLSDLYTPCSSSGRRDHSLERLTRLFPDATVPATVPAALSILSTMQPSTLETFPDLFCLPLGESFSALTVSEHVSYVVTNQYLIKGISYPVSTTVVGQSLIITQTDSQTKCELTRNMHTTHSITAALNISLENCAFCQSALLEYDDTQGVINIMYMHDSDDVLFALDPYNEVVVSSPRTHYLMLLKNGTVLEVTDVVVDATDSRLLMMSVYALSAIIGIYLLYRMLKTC
T1 chain 2: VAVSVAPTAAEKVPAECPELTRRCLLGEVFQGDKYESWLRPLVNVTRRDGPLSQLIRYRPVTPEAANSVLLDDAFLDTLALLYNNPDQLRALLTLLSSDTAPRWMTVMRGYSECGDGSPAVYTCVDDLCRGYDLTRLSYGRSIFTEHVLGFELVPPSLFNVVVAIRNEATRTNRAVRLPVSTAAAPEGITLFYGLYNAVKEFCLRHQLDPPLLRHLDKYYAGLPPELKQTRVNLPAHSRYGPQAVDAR
T1 chain 3: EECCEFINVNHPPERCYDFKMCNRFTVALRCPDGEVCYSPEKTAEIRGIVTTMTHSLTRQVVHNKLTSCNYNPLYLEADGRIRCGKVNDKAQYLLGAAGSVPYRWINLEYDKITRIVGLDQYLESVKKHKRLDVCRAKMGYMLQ
T1 chain 4: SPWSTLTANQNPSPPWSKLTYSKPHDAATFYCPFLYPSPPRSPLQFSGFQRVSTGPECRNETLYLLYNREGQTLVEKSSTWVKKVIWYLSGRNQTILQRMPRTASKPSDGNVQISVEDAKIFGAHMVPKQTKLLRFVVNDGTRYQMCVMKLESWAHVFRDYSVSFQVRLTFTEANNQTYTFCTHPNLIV
T1 chain 5: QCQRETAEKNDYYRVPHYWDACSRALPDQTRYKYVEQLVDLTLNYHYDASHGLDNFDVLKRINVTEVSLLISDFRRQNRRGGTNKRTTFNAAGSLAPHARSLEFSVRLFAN

Assay [2] deals with T2, Complex I with gH P171S, on virions of HB1 - mutant virus 3 (HCMV, UniProt P12824 24-743; P16832 31-278; P16837 28-171; F5HCP3 26-214; F5HET4 19-129).
T2 chain 1: T1 chain 1 with H148S
T2 chain 2: T1 chain 2
T2 chain 3: T1 chain 3
T2 chain 4: T1 chain 4
T2 chain 5: T1 chain 5

Assay [3] has as its target T3, Complex I with gH W168R, on virions of HB1 - mutant virus 6 (HCMV, UniProt P12824 24-743; P16832 31-278; P16837 28-171; F5HCP3 26-214; F5HET4 19-129).
T3 chain 1: T1 chain 1 with W145R, H148P
T3 chain 2: T1 chain 2
T3 chain 3: T1 chain 3
T3 chain 4: T1 chain 4
T3 chain 5: T1 chain 5

Changes are numbered by the printed parent chain.

B1: hu8G8 (lambda4 8G8 graft and hu8G8.VH1) (antibody, V domains shown)
VH: EVQLVQSGAEVKKPGASVKVSCKASGYTFTNYGMNWVRQAPGQGLEWIGWINTYTGEPTYADDFKGRVTITRDTSTSTAYLELSSLRSEDTAVYYCARSWYYVSNYWYFDVWGQGTLVTVSS
VL: SVLTQSPSASASLGASVKLTCTLSSQHSTYTIEWYQQQPGKGPRYLMKLKKDGSHSTGDGIPDRFSGSSSGADRYLTISNLQSEDEADYYCGVGDTIKEQFVYVFGGGTKLTVLG
notes: also called hu8G8 with VH1; Humanized 8G8 with VH1
For B1, in assay [1], the “hu8G8 EC50, neutralisation of HB1 - mutant virus 1, Data Set 1” value was determined as 10 ng/mL and the “hu8G8 EC50, neutralisation of HB1 - mutant virus 1, Data Set 2” value came out at 0.6 ng/mL. For the same molecule, in assay [2], the “hu8G8 EC50, neutralisation of HB1 - mutant virus 3, Data Set 1” value is 1 ng/mL and the “hu8G8 EC50, neutralisation of HB1 - mutant virus 3, Data Set 2” value is 0.1 ng/mL. Also, the “hu8G8 EC50, neutralisation of HB1 - mutant virus 6, Data Set 2” value in assay [3] stood at 1 ng/mL.
